According to PMC10234869:

B1: Frey regulator of sperm-oocyte fusion 1 with C-terminal 3xFLAG tag (Frey1-3xFLAG), wild type [murine] / Signal Peptide Peptidase-like 2c, C-terminally myc-tagged (SPPL2c-myc) [murine] (parent)
chain 1: MVLAMLGALYPRAGLSLFLFYLILAGALLRPQPQRSQQSVPEEFSAPLELLQPLSGLVDDYGLRPKHPRPGGPRPLLSQAQQRKRDGPNMADYYYDVNL
chain 2: EYGLVRVVSKNWSKDYCVLYSSDYVNLPRDLHHAPLLSLHDGTKTPWCPDEDSFHQAQDSSPRQRPLHQTTTMVTRGNCSFYAKGWLAQDQGAQGLLIVSRARNQQCSDTISKPQDPSKPWPALTIPVAVLRYTDMLDIVSHTYGDTDVRVAMFAPLEPVTDYNMAIIFILAVGTVAAGGYWAGLMEANKLQRRQAQRGGGLGGHNQQQTVAAERSQRAWEDDDFEDAPMDFTPAMTGAVVTMSCSIMILLYFFYDCFVYVMIGIFSLGASTGLYSCLAPILCHLPLWRYQWVLPGQRVSVTWPLLLLAGLCAMVTVLWVIHRNEDHWAWLLQDTLGVAYCLFVLRRVRLPTFKNCTLFLLALLAFDVFFVFITPLFTKTGESIMVEVASGPADSSSHERLPMVLKVPRLSFSALTLCNQPFSILGFGDIVVPGFLVAYCHRFDMQVQSRQVYYMACTVAYAVGLLVTFVAMILMQMGQPALLYLVSSTLLTSLAVATCRQEFTLFWTGQGRAKIPAEPVAQPCIASAVGSKMKLEDAKDSRTTNRFEQAVDGESGDLESSTGDDMAEMVTLSEDEATSPEGHSESSEGWSDTNLDPNELPSGSPMALEAMLIPLIQPIPHPSELGHIRTQSRVHDSSLPWMGLHKRKGLKVKKSMSAQAPL

Variants of: B1
Assay: co-immunoprecipitation (anti-FLAG IP, Western blot quantification)
Conditions: with Signal Peptide Peptidase-like 2c, transiently transfected HEK cells, n = 6, parent: 100, read off a plot

| percent of parent (% of Frey1 Wt) | Variant |
| --- | --- |
| 17 | chain 1 MVLAMLGALYLRALLTLFLFYLILAAALLRPQPQRSQQSVPEEFSAPLELLQPLSGLVDDYGLRPKHPRPGGPRPLLSQAQQRKRDGPNMADYYYDVNL [chain 1 P11L G14L S16T G26A] |

Variants of: B1
Assay: competition co-immunoprecipitation pulling on Frey1 (anti-FLAG IP, Western blot quantification)
Conditions: with Signal Peptide Peptidase-like 2c, co-expression of HA-HO-1 as competitor, value is relative to the same Frey1 variant without HA-HO-1 (EV = 100), transiently transfected HEK cells, n = 3, parent: 100, read off a plot

| co-precipitated SPPL2c, percent of no-competitor control | Variant |
| --- | --- |
| 59 % of EV | chain 1 MVLAMLGALYLRALLTLFLFYLILAAALLRPQPQRSQQSVPEEFSAPLELLQPLSGLVDDYGLRPKHPRPGGPRPLLSQAQQRKRDGPNMADYYYDVNL [chain 1 P11L G14L S16T G26A] |
